# From patent publication US20040186056A1 (SANFORD BURNHAM MEDICAL RESEARCH INSTITUTE, published 2004)
# B1: phage expressing the HMGN2 exon 3 sequence PQRRSARLSA (SEQ ID NO: 11) (other)
# chain: PQRRSARLSA
# notes: not shown: T7 phage coat protein fusion partner
# How the values were obtained:
# [1] = molecular target: T1, cell surface nucleolin on intact tumor cells (MDA-MB-435, HL-60) (human, UniProt P19338 2-710); assay: phage binding to tumor cells, pfu count; the filing names nucleolin as the receptor only later
# T1 construct: Native nucleolin on human tumor cell lines; also called cell surface-expressed nucleolin
# Text: Phage displaying a set of sequences corresponding to fragments of the amino-terminal portion of HMGN2 (SEQ ID NO: 5) were constructed to localize the region responsible for cell binding and in vivo homing. Fragments were designed to follow the exon/intron boundaries of the HMGN2 gene. Inserts encoding the indicated fragments were amplified from the full length HMGN2 phage clone by PCR, purified, digested and directionally cloned into the T7 415-1 and 10-3 vectors. Phage were packaged, amplified and sequenced according to the manufacturer's instructions. Phage preparations were then tested for binding to primary cells obtained from HL-60 xenograft tumors. After a 1 hour incubation at 4° C., cells were washed, and bound phage quantified. […] Furthermore, phage displaying the N-terminal portion of the active fragment SEQ ID NO: 9, which corresponds to exon 3 of the HMGN2 gene, were prepared. These phage expressing the sequence […] (SEQ ID NO: 11) bound to tumor cells 90-fold more than non-recombinant phage.
# The phage binding assay was performed essentially as follows. Attachment of phage to cells was quantified by incubating 1×10⁸ pfu of phage displaying SEQ ID NO: 9 for 60 minutes with 1×10⁶ HL-60 cells at 4° C. in Tris-buffered saline with 1 mM Ca⁺² and 1 mM MgCl₂. […] Bound phage were quantified by plating and counting pfu.
# [2] = molecular target: T2, nucleolin (110-kDa protein of MDA-MB-435 cells, in cell extracts and inside cells) (human, UniProt P19338 2-710); assay: affinity chromatography of MDA-MB-435 cell extract on peptide matrix, SDS gel, mass spectrometry
# T2 construct: also called 110 kDa band; full-length nucleolin
# Method: 276:48588-48595 (2001). Briefly, 6×10⁸ MDA-MB-435 cells grown in RPMI 1640 medium with 10% fetal calf serum were pelleted and lysed in 60 ml of RIPA buffer (1% Triton X-100, 0.5% deoxycholic acid, 0.1% SDS, 10 mM Tris-HCl pH 7.6, 150 mM NaCl, and 1% Protease Inhibitor Cocktail for Mammalian Cells; SIGMA). […] Matrix beads were washed three times with IP-wash buffer (0.025% Triton X-100, 50 mM Tris-HCl pH 8.4, 150 mM NaCl, 1 mM CaCl₂, and 0.02% azide), two times with 25 mM Tris-HCl pH 8.4/250 mM NaCl, and eluted with 30 μl of SDS gel sample buffer. Affinity-purified proteins were reduced with 50 mM DTT before being separated on an 8-20% polyacrylamide gel and visualized by Colloidal Blue staining (Invitrogen; Carlsbad, Calif.). Bands that appeared in the peptide SEQ ID NO: 9 eluate, but not in control eluate, were cut out, digested with trypsin and analyzed by mass spectroscopy using matrix-assisted laser desorption ionization-time of flight analysis (Voyager DE-PRO, Applied Biosystems; Foster City, Calif.). Peptide samples were prepared using an alpha-cyano-4-hydroxycinnamic acid (HCCA)/nitrocellulose matrix.
# T1 sequence (P19338 other isoform, or with tags, fused parts or gaps limits assumed): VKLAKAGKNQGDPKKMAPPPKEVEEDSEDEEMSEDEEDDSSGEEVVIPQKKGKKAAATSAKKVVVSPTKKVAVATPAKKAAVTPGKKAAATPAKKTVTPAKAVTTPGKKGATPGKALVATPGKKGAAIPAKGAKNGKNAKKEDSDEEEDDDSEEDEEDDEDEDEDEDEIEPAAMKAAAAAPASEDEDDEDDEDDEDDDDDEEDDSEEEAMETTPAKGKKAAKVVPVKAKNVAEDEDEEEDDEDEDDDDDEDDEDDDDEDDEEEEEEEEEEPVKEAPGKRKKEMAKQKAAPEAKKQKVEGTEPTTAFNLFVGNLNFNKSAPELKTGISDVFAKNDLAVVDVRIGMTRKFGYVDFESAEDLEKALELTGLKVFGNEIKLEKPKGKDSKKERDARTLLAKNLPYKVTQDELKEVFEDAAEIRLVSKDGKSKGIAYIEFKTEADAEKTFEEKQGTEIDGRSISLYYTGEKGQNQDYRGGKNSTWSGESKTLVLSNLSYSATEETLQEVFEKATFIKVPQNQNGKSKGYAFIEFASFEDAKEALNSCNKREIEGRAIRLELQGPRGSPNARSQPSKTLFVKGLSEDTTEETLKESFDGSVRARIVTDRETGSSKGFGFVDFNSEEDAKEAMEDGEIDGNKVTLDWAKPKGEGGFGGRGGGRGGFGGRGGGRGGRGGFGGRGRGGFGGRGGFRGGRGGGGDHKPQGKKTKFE
# T2 sequence (P19338 other isoform, or with tags, fused parts or gaps limits assumed): as above
Binder,fold binding over non-recombinant phage [1],binding result [2]
B1,90 fold,–
APKDKPAAVKERKKPAPKPRPQELRSKKAKPAPAS (also called control matrix) [control peptide APKDKPAAVKERKKPAPKPRPQELRSKKAKPAPAS (SEQ ID NO:20)],–,no binding
